This is an account of results in PMC11112410 (Frontiers in Immunology, 2024).

Test [1] addresses T1, recombinant Aln g 1.0101 (alder) (alder).
T1 construct: alder pollen allergen Aln g 1, isoallergen Aln g 1.0101; source: bought: Biomay AG (recombinant)
T1 chain: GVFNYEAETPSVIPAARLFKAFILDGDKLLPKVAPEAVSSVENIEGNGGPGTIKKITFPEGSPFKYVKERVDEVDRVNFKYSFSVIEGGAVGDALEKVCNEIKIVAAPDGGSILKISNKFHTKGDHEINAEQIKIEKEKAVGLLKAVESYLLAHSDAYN
Kind of test: ELISA; IgE inhibition: recombinant allergens (1 µg/ml) coated, pre-incubated with Nb32 (10 µg/ml) or Nb32ILZ (11.5 µg/ml) overnight at 4°C, then patients' sera 1:10; bound IgE detected with AKP-labelled anti-human-IgE antibody. Conditions: both partners purified.

For test [2], the target named is T2, recombinant Cor a 1.0103 (hazel) (Corylus avellana, isoallergen Cor a …, UniProt Q08407, strain).
T2 construct: source: bought: Biomay AG (recombinant)
Described as above. Conditions: both partners purified.

In test [3] the target is T3, recombinant Bet v 1.0101 (birch) (birch).
T3 construct: major birch pollen allergen Bet v 1, isoallergen Bet v 1.0101; also called major birch pollen allergen; source: bought: Biomay AG (recombinant)
T3 chain: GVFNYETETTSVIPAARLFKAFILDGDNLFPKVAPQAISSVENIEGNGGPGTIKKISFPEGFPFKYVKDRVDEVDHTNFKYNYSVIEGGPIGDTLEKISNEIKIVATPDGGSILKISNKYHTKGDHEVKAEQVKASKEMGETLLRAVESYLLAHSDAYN
Kind of test: SPR; Biacore T200, CM5 chip, 25°C; allergens amine-coupled; nanobodies injected in HBS-EP+ (Nb32ILZ 0.172-44 nM, Nb32 0.313-40 nM), multicycle kinetics, 30 min dissociation; printed kd from the 1:1 (Langmuir) binding model for both nanobodies. Conditions: both partners purified.

Test [4] deals with T1, recombinant Aln g 1.0101 (alder). The description is as above. Conditions: both partners purified.
In test [5] the target is T2, recombinant Cor a 1.0103 (hazel). The description is as above. Conditions: both partners purified.
Test [6] has as its target T4, recombinant Phl p 5.0101 (timothy grass) (timothy grass).
T4 construct: timothy grass pollen allergen Phl p 5, isoallergen Phl p 5.0101; also called major grass pollen allergen; source: bought: Biomay AG (recombinant)
T4 chain: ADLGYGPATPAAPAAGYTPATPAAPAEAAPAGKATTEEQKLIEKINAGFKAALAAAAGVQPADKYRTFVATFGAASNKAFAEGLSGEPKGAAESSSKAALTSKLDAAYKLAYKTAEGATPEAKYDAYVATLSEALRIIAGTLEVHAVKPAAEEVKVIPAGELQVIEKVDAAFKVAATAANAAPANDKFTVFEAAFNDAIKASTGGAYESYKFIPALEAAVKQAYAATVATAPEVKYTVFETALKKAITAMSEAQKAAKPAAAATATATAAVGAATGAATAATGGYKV
Kind of test: ELISA; recombinant allergens or unrelated antigens (2 µg/ml in bicarbonate buffer) coated on the plate; nanobodies 2 µg/ml (Figure 2A) or 1 µg/ml (Figures 2B-C) in 0.1% BSA in PBST, overnight at 4°C; detected with HRP-labelled anti-HA-tag antibody. Conditions: both partners purified.

For test [7], the target named is T5, recombinant Car b 1.0109 (hornbeam) (Carpinus betulus, isoallergen Car b …, UniProt B6RQR6, strain).
T5 construct: hornbeam pollen allergen Car b 1, isoallergen Car b 1.0109; source: recombinant; provided by Prof; Barbara Bohle (IPA, MUV)
The test is described as above. Conditions: both partners purified.

Test [8] concerns the target T6, natural Cor a 1 in hazel pollen extract (hazel (endogenous in hazel pollen)).
T6 construct: natural Cor a 1 of hazel pollen extract; Unpurified extract; band at around 17 kDa on blots; source: endogenous, hazel pollen (Allergon) extract
T6 chain: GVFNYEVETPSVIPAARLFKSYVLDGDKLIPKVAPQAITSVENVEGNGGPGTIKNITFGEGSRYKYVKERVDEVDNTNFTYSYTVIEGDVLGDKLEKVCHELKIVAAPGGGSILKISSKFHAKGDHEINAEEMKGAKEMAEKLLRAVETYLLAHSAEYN
Put plainly: far-Western, overlay or dot blot; pollen extracts separated by reducing SDS-PAGE, blotted on nitrocellulose; strips incubated with Nb32 (1 µg/ml) or Nb32ILZ (1.15 µg/ml) in Buffer A at 4°C overnight; detected with HRP-labelled anti-HA-tag antibody. Conditions: one partner purified.

B1: Bet v 1-specific nanobody monomer Nb32 (VHH)
VHH: QVQLVESGGGSVQSGGSLRLSCAASGYTYSSYCMAWFRQAPGKKREGVAAIDTDGSTDYADSVKGRFAISQDNAKNTLYLQMNSLKPEDTAMYYCAAYGGSCRRGTGSGYWGQGTQVTVSS
notes: as the chain of m1 (Nb32ILZ) without the ILZ domain: Nb32 VHH and hinge; also called Nb32 monomer; not shown: HA, C-terminal, kept; His6, C-terminal, kept
With B1, the “percent inhibition of patients' IgE binding” value is 65% in test [1] and 48% in test [2]. Also, the koff is 9.9e-05 s⁻¹ in test [3], 0.0001 s⁻¹ in test [4] and 0.00021 s⁻¹ in test [5]. Besides, the results for the binding result in test [6], in test [7] and in test [8] were “no binding”, “binds” and “binds”, respectively.
